According to patent US7838288B2, “Modulators of odorant receptors” (Duke University, priority 2004, dated 2010):

How the values were obtained:
[1] = tested on: 23-1; assay: Living-cell staining of cell-surface 23-1; type: cell-based, mouse; conditions: accessory protein co-transfected in 293T cells
Procedure: 293T cells were maintained in minimal essential medium containing 10% fetal bovine serum (M10). Lipofectamine 2000 (Invitrogen) was used for transfection. In live-cell staining, 16 hours after transfection, cells were incubated in M10 containing anti rhodopsin antibody, 4D2 (see, e.g., Laird, D. W., and Molday, R. S. (1988) Invest Opthalmol V is Sci 29, 419-428; herein incorporated by reference in its entirety) and 15 mM NaN3 at 4 degrees C. for 1 hour. After washing, cells were incubated with Cy3-conjugated anti mouse IgG (Jackson Immunologicals), washed and mounted. For FACS analysis, 4D2 and PE-conjugated anti mouse IgG (Jackson Immunologicals) were used to monitor the Rho tagged receptor expression. Anti HA rabbit antibodies (Sigma) and Alexa 488 conjugated anti rabbit IgG (Molecular Probes) was used to stain the HA-β2 adrenergic receptor. To establish the Hana3a cells, 1 ug/ml of puromycin was used for selection. 96 colonies were picked and assayed using luciferase assay using OREG.

[2] = tested on: olfr62; assay: CRE-luciferase reporter gene assay, olfr62; type: cell-based, mouse; conditions: 293T cells expressing RTP1 variant
Summary of the method: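 Receptor-transfected 293T cells carrying CRE-luciferase plus SV40-Renilla control, switched to CD293 medium 12 h post-transfection, then exposed to odorants for 4 h at 37 °C. Signal is dual-luciferase normalized activity, [Luc(N) − Luc(0)]/Renilla.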

B1: RTP1-A1: RTP1 variant from deleting portions of RTP1-A; murine SEQ ID NO: 46, human SEQ ID NO: 47 (protein, listed as Mus musculus)
chain: MCKSVTTGEWKKVFYEKMEEVKPADSWDFIIDPNLKHNVLAPGWKQYLELHASGRFHCSWCWHTWQSPHVVILFHMYLDKAQRAGSVRMRVFKQLCYECGTARLDESSMLEENIESLVDNLITSLREQCYGERGGHYRIHVASRQDNRRHRGEFCEACQEGIVHWKPSEKLLEEEATTYTFSRAPSPTKPQAETGSGCNFCSIPWCLFWATVLMLIIYLQFSFRTSV
- cell-surface expression of 23-1 [1]: Increased cell-surface staining
- OLFR62 activity as indicated by luciferase expression [2]: Increased enhancement
